Literature values in paper PMC6426597.

Molecular target: CD40 (Homo sapiens) (UniProt P25942)
Sequence of UniProt P25942 (P25942 21-193): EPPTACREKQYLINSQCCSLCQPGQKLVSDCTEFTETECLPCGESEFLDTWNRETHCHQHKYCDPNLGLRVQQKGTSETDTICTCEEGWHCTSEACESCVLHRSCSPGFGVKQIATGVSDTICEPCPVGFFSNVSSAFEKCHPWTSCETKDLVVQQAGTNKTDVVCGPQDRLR

For TSST-1 (from UniProt P06886), the Kd is given as 2.7 µM.
